System: mCherry expression in HEK293 FT cells
Experiment: Inducible split RfxCas13d (GIB, RAP, ABA, Dano, GRZ CID domains; NES/NLS variants) mCherry knockdown, leakiness and inducibility
Type: cell-based
Details: for performance in the tested conditions: inducible polypeptide systems of Tables 18-22
Text: FIG. 6A-6C is a series of schematics and graphs showing that split RfxCas13d's reconstituted and functioned to knockdown mCherry expression in HEK293 FT cells FIG. 6A is a schematic showing split sites selected throughout RfxCas13d sequence. FIG. 6B is a bar graph showing mCherry expression under 4 conditions for gibberellin-inducible, rapalog-inducible, and abscisic acid-inducible inducible split Cas13d designs. In FIG. 6B and FIG. 6C, the left-right order of the bars for each split site is the same as the left-right order of the legend for each bar graph.
FIG. 7A-7E is a series of schematics and graphs showing a functional and inducible split Cas13d design. FIG. 7A is a bar graph showing additional split sites selected in RfxCas13d and tested with GIB CID domains. […] In FIG. 7A and FIG. 7C, the left-right order of the bars for each split site is the same as the left-right order of the legend. FIG. 7B is a schematic showing the design to compartmentalize splits. Compartmentalizing moieties facilitates the reduction of leakiness. […] FIG. 7D is a schematic showing the experiment flow for testing reversibility of the inducible split Cas13d's.
FIG. 8A-8B is a series of schematics and graphs showing that split RfxCas13d's reconstituted upon drug-induced dimerization and knocked down mCherry expression in HEK293 FT cells. FIG. 8A is a bar graph showing quantification of system performance. The left-right order of the bars for each split site is the same as the top-down order of the legend. […] System performance in leakiness score (left axis) and induced activity (right axis) by GIB, RAP, ABA, and Dano-inducible split Cas13d designs.
FIG. 10A-10B is a series of schematics and graphs showing performance optimization through separating split Cas13d moieties in different cellular compartments. […] The left-right order of the bars for each bar graph is the same as the top-down order of the legend.
FIG. 11 is a series of schematics and graphs showing the testing of reversed orientation (dark grey dots) of CID domains with respect to split Cas13d pieces against original orientations (light grey dots) designed for GIB, ABA, Dano, and GRZ inducible systems.

[1] = RfxCas13d split with GIB CID domains

Molecule	performance in the tested conditions	knockdown efficiency [1]	leaky off state activity [1]
SEQ ID NO: 801: inducible system polypeptide, probably Table 20 (GID-GAI) (protein) MLDLASLILIEKKKSFAKGMGVKSTLVSGSKVYMTTFAEGSDARLEKIVEGDSIRSVNEGEAFSAEMADKNAGYKIGNAKFSHPKGYAVVANNPLYTGPVQQDMLGLKETLEKRYFGESADGNDNICIQVIHNILDIEKILAEYITNAAYAVNNISGLDKDIIGFGKFSTVYTYDEFKDPEHHRAAFNNNDKLINAIKAQYDEFDNFLDNPRLGYFGQAFFSKEGRNYIINYGNECYDILALLSGLRHWVVHNNEEESRISRTWLYNLDKNLDNEYISTLNYLYDRITNELTNSFSKNSAANVNYIAETLGINPAEFAEQYFRFSIMKEQKNLGFNITKLREVMLDRKDMSEIRKNHKVFDSIRTKVYTMMDFVIYRYYIEEDAKVAAANKSLPDNEKSLSEKDIFVINLRGSFNDDQKDALYYDEANRIWRKLENIMHNIKEFRGNKTREYKKKDAPRLPRILPAGRDVSAFSKLMYALTMFLDGKEINDLLTTLINKFDNIQSFLKVMPLIGVNAKFVEEYAFFKDSAKIADELRLIKSFARMGEPIADARRAMYIDAIRILGTNLSYDELKSGGSGSGSSGGSGTMAASDEVNLIESRTVVPLNTWVLISNFKVAYNILRRPDGTFNRHLAEYLDRKVTANANPVDGVFSFDVLIDRRINLLSRVYRPAYADQEQPPSILDLEKPVDGDIVPVILFFHGGSFAHSSANSAIYDTLCRRLVGLCKCVVVSVNYRRAPENPYPCAYDDGWIALNWVNSRSWLKSKKDSKVHIFLAGDSSGGNIAHNVALRAGESGIDVLGNILLNPMFGGNERTESEKSLDGKYFVTVRDRDWYWKAFLPEGEDREHPACNPFSPRGKSLEGVSFPKSLVVVAGLDLIRDWQLAYAEGLKKAGQEVKLMHLEKATVGFYLLPNNNHFHNVMDEISAFVNAECLDLASLIL	highest performance	–	–
SEQ ID NO: 804: inducible system polypeptide, probably Table 20 (GID-GAI) (protein) MAPKKKRKVGIHGVPAAKRDHHHHHHQDKKTMMMNEEDDGNGMDELLAVLGYKVRSSEMADVAQKLEQLEVMMSNVQEDDLSQLATETVHYNPAELYTWLDSMLTDLNSGGSGSGSSGGSGTDKGKSVSEKVDALTKIITGMNYDQFDKKRSVIEDTGRENAEREKFKKIISLYLTVIYHILKNIVNINARYVIGFHCVERDAQLYKEKGYDINLKKLEEKGFSSVTKLCAGIDETAPDKRKDVEKEMAERAKESIDSLESANPKLYANYIKYSDEKKAEEFTRQINREKAKTALNAYLRNTKWNVIIREDLLRIDNKTCTLFRNKAVHLEVARYVHAYINDIAEVNSYFQLYHYIMQRIIMNERYEKSSGKVSEYFDAVNDEKKYNDRLLKLLCVPFGYCIPRFKNLSIEALFDRNEAAKFDKEKKKVSGNSGSGPKKKRKV	highest performance	–	–
Split 263/264: RfxCas13d split at 263/264 (SEQ ID NOs: 14, 15) with GIB CID domains (protein, GIB CID domains attached) chain 1: IEKKKSFAKGMGVKSTLVSGSKVYMTTFAEGSDARLEKIVEGDSIRSVNEGEAFSAEMADKNAGYKIGNAKFSHPKGYAVVANNPLYTGPVQQDMLGLKETLEKRYFGESADGNDNICIQVIHNILDIEKILAEYITNAAYAVNNISGLDKDIIGFGKFSTVYTYDEFKDPEHHRAAFNNNDKLINAIKAQYDEFDNFLDNPRLGYFGQAFFSKEGRNYIINYGNECYDILALLSGLRHWVVHNNEEESRISRTWLYNLDKNL chain 2: DNEYISTLNYLYDRITNELTNSFSKNSAANVNYIAETLGINPAEFAEQYFRFSIMKEQKNLGFNITKLREVMLDRKDMSEIRKNHKVFDSIRTKVYTMMDFVIYRYYIEEDAKVAAANKSLPDNEKSLSEKDIFVINLRGSFNDDQKDALYYDEANRIWRKLENIMHNIKEFRGNKTREYKKKDAPRLPRILPAGRDVSAFSKLMYALTMFLDGKEINDLLTTLINKFDNIQSFLKVMPLIGVNAKFVEEYAFFKDSAKIADELRLIKSFARMGEPIADARRAMYIDAIRILGTNLSYDELKALADTFSLDENGNKLKKGKHGMRNFIINNVISNKRFHYLIRYGDPAHLHEIAKNEAVVKFVLGRIADIQKKQGQNGKNQIDRYYETCIGKDKGKSVSEKVDALTKIITGMNYDQFDKKRSVIEDTGRENAEREKFKKIISLYLTVIYHILKNIVNINARYVIGFHCVERDAQLYKEKGYDINLKKLEEKGFSSVTKLCAGIDETAPDKRKDVEKEMAERAKESIDSLESANPKLYANYIKYSDEKKAEEFTRQINREKAKTALNAYLRNTKWNVIIREDLLRIDNKTCTLFRNKAVHLEVARYVHAYINDIAEVNSYFQLYHYIMQRIIMNERYEKSSGKVSEYFDAVNDEKKYNDRLLKLLCVPFGYCIPRFKNLSIEALFDRNEAAKFDKEKKKVSGNS	–	over 60%	minimum leaky off state activity
SEQ ID NO: 805: inducible system polypeptide, probably Table 20 (GID-GAI) (protein) MLDLASLILIEKKKSFAKGMGVKSTLVSGSKVYMTTFAEGSDARLEKIVEGDSIRSVNEGEAFSAEMADKNAGYKIGNAKFSHPKGYAVVANNPLYTGPVQQDMLGLKETLEKRYFGESADGNDNICIQVIHNILDIEKILAEYITNAAYAVNNISGLDKDIIGFGKFSTVYTYDEFKDPEHHRAAFNNNDKLINAIKAQYDEFDNFLDNPRLGYFGQAFFSKEGRNYIINYGNECYDILALLSGLRHWVVHNNEEESRISRTWLYNLDKNLDNEYISTLNYLYDRITNELTNSFSKNSAANVNYIAETLGINPAEFAEQYFRFSIMKEQKNLGFNITKLREVMLDRKDMSEIRKNHKVFDSIRTKVYTMMDFVIYRYYIEEDAKVAAANKSLPDNEKSLSEKDIFVINLRGSFNDDQKDALYYDEANRIWRKLENIMHNIKEFRGNKTREYKKKDAPRLPRILPAGRDVSAFSKLMYALTMFLDGKEINDLLTTLINKFDNIQSFLKVMPLIGVNAKFVEEYAFFKDSAKIADELRLIKSFARMGEPIADARRAMYIDAIRILGTNLSYDELKALADTFSLDENGNKLKKGKHGMRNFIINNVISNKRFHYLIRYGDPAHLHEIAKNEAVVKFVLGRIADIQKKQGQNGKNQIDRYYETCIGKSGGSGSGSSGGSGTMAASDEVNLIESRTVVPLNTWVLISNFKVAYNILRRPDGTFNRHLAEYLDRKVTANANPVDGVFSFDVLIDRRINLLSRVYRPAYADQEQPPSILDLEKPVDGDIVPVILFFHGGSFAHSSANSAIYDTLCRRLVGLCKCVVVSVNYRRAPENPYPCAYDDGWIALNWVNSRSWLKSKKDSKVHIFLAGDSSGGNIAHNVALRAGESGIDVLGNILLNPMFGGNERTESEKSLDGKYFVTVRDRDWYWKAFLPEGEDREHPACNPFSPRGKSLEGVSFPKSLVVVAGLDLIRDWQLAYAEGLKKAGQEVKLMHLEKATVGFYLLPNNNHFHNVMDEISAFVNAECLDLASLIL	highest performance	–	–
SEQ ID NO: 809: inducible system polypeptide, probably Table 20 (GID-GAI) (protein) MAASDEVNLIESRTVVPLNTWVLISNFKVAYNILRRPDGTFNRHLAEYLDRKVTANANPVDGVFSFDVLIDRRINLLSRVYRPAYADQEQPPSILDLEKPVDGDIVPVILFFHGGSFAHSSANSAIYDTLCRRLVGLCKCVVVSVNYRRAPENPYPCAYDDGWIALNWVNSRSWLKSKKDSKVHIFLAGDSSGGNIAHNVALRAGESGIDVLGNILLNPMFGGNERTESEKSLDGKYFVTVRDRDWYWKAFLPEGEDREHPACNPFSPRGKSLEGVSFPKSLVVVAGLDLIRDWQLAYAEGLKKAGQEVKLMHLEKATVGFYLLPNNNHFHNVMDEISAFVNAECSGGSGSGSSGGSGTSYDELKALADTFSLDENGNKLKKGKHGMRNFIINNVISNKRFHYLIRYGDPAHLHEIAKNEAVVKFVLGRIADIQKKQGQNGKNQIDRYYETCIGKDKGKSVSEKVDALTKIITGMNYDQFDKKRSVIEDTGRENAEREKFKKIISLYLTVIYHILKNIVNINARYVIGFHCVERDAQLYKEKGYDINLKKLEEKGFSSVTKLCAGIDETAPDKRKDVEKEMAERAKESIDSLESANPKLYANYIKYSDEKKAEEFTRQINREKAKTALNAYLRNTKWNVIIREDLLRIDNKTCTLFRNKAVHLEVARYVHAYINDIAEVNSYFQLYHYIMQRIIMNERYEKSSGKVSEYFDAVNDEKKYNDRLLKLLCVPFGYCIPRFKNLSIEALFDRNEAAKFDKEKKKVSGNSGSGPKKKRKVPKKKRKV	highest performance	–	–

Reference: US12180485B2, “Repressible control of gene expression” (TRUSTEES OF BOSTON UNIVERSITY, priority 2020, dated 2024)
